One substance from patent US20140212446A1 can be followed below.

The assay concerns the target CD64, high affinity human FcgammaRI receptor, expressed on K562 cells (K64 cells) (human). Nature of the assay: flow cytometry of K64 cells loaded with FITC-labelled IgG2a for 1 h at 4 C, quantified with Immuno-Brite beads.

“IgG2a-FITC-labeled antibodies (antibody)” returned an antibodies bound to each cell (antibodies bound to each cell) of 2000 to 6000.
